Assay results: patent US20220298244A1 (BEIJING MABWORKS BIOTECH, published 2022)
One block for each binder: values may come before it.

Assays:
[1] = target: T1, human PD-L1 expressed on HEK293A cells (human, UniProt Q9NZQ7 19-290); test: FACS blocking assay on HEK293A/human PD-L1 cells; blocked ligand PD1-hFc (protocol of Example 6)
T1 construct: Full-length cDNA expressed stably; also called HEK293A/human PD-L1 cells; HEK293A/human PD-L1
Procedure: (§1) Briefly, 10⁵ HEK293A/human PD-L1 cells in 100 μl culture medium were seeded onto each well of 96-well plates, to which added 50 μl serially diluted anti-PD-L1 antibodies. After incubated at 4° C. for 1 hour, the plates were washed 3 times with PBST. […] After incubation at 4° C. for 1 hour, the plates were washed with PBST for 3 times, and added with PE coupled Goat Anti-human IgG (Cat #:PAI-86078, Thermofisher, US) diluted 500×. After incubation at 4° C. for 1 hour, the plates were washed with PBST for 3 times and then cell fluorescence was monitored using a FACS machine (BD).

[2] = target: T2, monkey PD-L1 (ECD)-his (monkey, UniProt Q9NZQ7 19-238 (human entry)); test: ELISA on coated monkey PD-L1 (ECD)-his
T2 construct: Bought protein; also called Cat #:90251-C08H, Sino Biological; not shown: His tag
Procedure: (§2) Species-cross-reactivities of the anti-PD-L1 mAbs to monkey or mouse PD-L1s were further assessed by direct ELISA. Briefly, 96-well ELISA plates were coated with 500 ng/ml monkey PD-L1 (ECD)-his (Cat #:90251-C08H, Sino Biological, CN) or mouse PD-L1(ECD)-his (Cat #:50010-M08H, Sino Biological, CN), 100 μl per well, then added and incubated with 100 μl serially diluted anti-PD-L1 antibodies (starting at 40 μg/ml). The plates were then added and incubated with Goat anti-human IgG conjugated with HRP (Cat #:31410, Thermal, US) for 1 hour at room temperature. Plates were developed with freshly prepared Ultra-TMB (Cat #:555214, BD, US) for 5 minutes at room temperature, and absorbance was read on a SpectraMax^R i3X reader (Molecular Devies, US) at 450 nm.

[3] = target: T3, human PD-L1 (ECD)-his (human, UniProt Q9NZQ7 19-238); test: ELISA on coated human PD-L1 (ECD)-his
T3 construct: Bought protein; it is not tied to the bought construct by a sentence of its own; also called recombinant human PD-L1(ECD)-his; Cat #:10084-H08H, Sino Biological; not shown: His tag
Procedure: The chimeric anti-PD-L1 antibodies were further characterized for their abilities of binding to human PD-L1, monkey PD-L1 and mouse PD-L1. Briefly, ELISA plates were coated with 500 ng/ml human PD-L1 (ECD)-his (Cat #:10084-H08H, Sino Biological, CN), 100 μl per well, at 4° C. overnight. The wells were blocked with 200 μl blocking buffer (PBS containing 1% BSA, 1% goat serum and 0.05% Tween 20) for 2 hours at room temperature, added and incubated with 100 μl serially diluted anti-PD-L1 antibodies (starting at 40 μg/ml) for 1 hour at room temperature. The plates were washed for 3 times with PBST (PBS+0.05% Tween 20), added with Goat-anti-human IgG-HRP (Cat #:31410, Thermal, US) diluted 5000×, and incubated for 1 hour at room temperature. Plates were developed with freshly prepared Ultra-TMB (Cat #:555214, BD, US) for 5 minutes at room temperature. Absorbance was read on a SpectraMax^R i3X reader (Molecular Devies, US) at 450 nm.

[4] = target: T4, monkey PD-L1 expressed on HEK293A cells (monkey (cynomolgus), UniProt Q9NZQ7 19-290 (human entry)); test: FACS on HEK293A/monkey PD-L1 cells, serially diluted antibody (protocol of Example 4)
T4 construct: Full-length cDNA expressed stably; also called HEK293A/monkey PD-L1 cells; HEK293A/monkey PD-L1
Procedure: (§3) To determine whether the anti-PD-L1 antibodies bound to human, monkey or mouse PD-L1s expressed on HEK293A cells, a cell-based binding assay was performed by FACS using the HEK293A cells stably overexpressing human, monkey and mouse PD-L1s respectively as generated in Example 1. Briefly, 10⁵ HEK293A cells in 100 μl culture medium were seeded onto each well of the 96-well plates, to which added 50 μl serially diluted anti-PD-L1 antibodies. After incubated at 4° C. for 1 hour, plates were washed 3 times with PBST. Then, APC coupled Goat Anti-Mouse IgG (Cat #:405308, BioLegend, US) diluted 500× was added to the plates. After incubation at 4° C. for 1 hour, the plates were washed with PBS for 3 times and then cell fluorescence was monitored using a FACS machine (BD).

[5] = target: T5, mouse PD-L1(ECD)-his (mouse, UniProt Q9EP73 19-239); test: direct ELISA on coated mouse PD-L1(ECD)-his
T5 construct: Bought protein; also called mouse PD-L1-his; Cat #:50010-M08H, Sino Biological; not shown: His tag
Procedure: as §2

[6] = target: T6, mouse PD-L1 expressed on HEK293A cells (mouse, UniProt Q9EP73 19-290); test: FACS on HEK293A/mouse PD-L1 cells, serially diluted antibody (protocol of Example 4)
T6 construct: Full-length cDNA expressed stably; also called HEK293A/mouse PD-L1 cells; HEK293A/mouse PD-L1
Procedure: as §3

[7] = target: T1, human PD-L1 expressed on HEK293A cells; test: FACS on HEK293A/human PD-L1 cells, serially diluted antibody (protocol of Example 4)
Procedure: as §3

[8] = target: T4, monkey PD-L1 expressed on HEK293A cells; test: FACS on HEK293A/monkey PD-L1 cells
Procedure: as §3

[9] = target: T1, human PD-L1 expressed on HEK293A cells; test: FACS on HEK293A/human PD-L1 cells
Procedure: as §3

[10] = target: T6, mouse PD-L1 expressed on HEK293A cells; test: FACS on HEK293A/mouse PD-L1 cells
Procedure: as §3

[11] = target: T1, human PD-L1 expressed on HEK293A cells; test: FACS blocking assay: antibody titrated on HEK293A/human PD-L1 cells, then PD1-hFc (200 µg/ml) detected
Procedure: as §1

T1 sequence (Q9NZQ7 19-290 limits assumed): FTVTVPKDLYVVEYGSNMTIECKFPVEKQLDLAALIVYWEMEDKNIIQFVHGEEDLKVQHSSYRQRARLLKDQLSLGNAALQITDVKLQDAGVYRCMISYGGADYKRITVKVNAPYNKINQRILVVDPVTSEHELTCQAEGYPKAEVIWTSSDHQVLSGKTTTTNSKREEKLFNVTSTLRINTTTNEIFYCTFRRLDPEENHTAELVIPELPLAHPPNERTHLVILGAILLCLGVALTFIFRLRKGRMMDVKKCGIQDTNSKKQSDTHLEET
T6 sequence (Q9EP73 19-290 limits assumed): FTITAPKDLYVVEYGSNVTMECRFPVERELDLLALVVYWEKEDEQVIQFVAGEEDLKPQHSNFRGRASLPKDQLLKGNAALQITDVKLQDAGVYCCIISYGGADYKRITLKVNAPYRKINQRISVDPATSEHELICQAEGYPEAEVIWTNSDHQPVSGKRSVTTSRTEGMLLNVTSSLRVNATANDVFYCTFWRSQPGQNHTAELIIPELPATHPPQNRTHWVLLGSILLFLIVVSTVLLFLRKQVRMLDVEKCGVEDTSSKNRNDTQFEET
T4 sequence (Q9NZQ7 other isoform, or with tags, fused parts or gaps limits assumed): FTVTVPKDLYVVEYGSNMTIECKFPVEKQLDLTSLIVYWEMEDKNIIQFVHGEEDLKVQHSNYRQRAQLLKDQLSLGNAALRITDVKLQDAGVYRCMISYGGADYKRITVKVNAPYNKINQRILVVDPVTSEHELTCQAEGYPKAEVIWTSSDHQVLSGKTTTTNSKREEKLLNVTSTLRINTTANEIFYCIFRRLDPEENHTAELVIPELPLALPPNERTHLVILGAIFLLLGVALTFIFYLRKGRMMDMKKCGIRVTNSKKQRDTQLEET
T3 sequence (Q9NZQ7 19-238): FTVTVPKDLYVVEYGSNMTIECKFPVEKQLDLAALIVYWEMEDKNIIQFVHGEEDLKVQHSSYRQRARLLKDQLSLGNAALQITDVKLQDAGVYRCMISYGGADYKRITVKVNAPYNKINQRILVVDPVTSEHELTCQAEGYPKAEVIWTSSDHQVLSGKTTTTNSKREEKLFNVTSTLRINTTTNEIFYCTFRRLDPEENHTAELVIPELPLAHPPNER
T5 sequence (Q9EP73 19-239): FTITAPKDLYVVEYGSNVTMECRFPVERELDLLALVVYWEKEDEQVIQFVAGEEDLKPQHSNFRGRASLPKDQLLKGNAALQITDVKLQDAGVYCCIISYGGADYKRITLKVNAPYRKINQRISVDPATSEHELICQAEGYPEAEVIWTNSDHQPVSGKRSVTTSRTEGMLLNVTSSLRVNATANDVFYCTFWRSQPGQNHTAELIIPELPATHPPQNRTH
T2 sequence (Q9NZQ7 other isoform, or with tags, fused parts or gaps): as the sequence (Q9NZQ7 19-238) above, with A33T, A34S, S62N, R68Q, Q82R, F173L, T185A, T192I, H215L counted along it

- IC50 (read off the curve) [1]: ~0.2 µg/mL
- EC50 [2]: 0.172 nM
- EC50 [3]: 0.0456 nM
- EC50 (read off the curve) [4]: ~0.1 µg/mL
- EC50 (read off the curve) [7]: ~0.1 µg/mL
B1: chimeric 3C2 antibody (antibody, human IgG1, kappa, N297A, V domains shown)
VH: QVQLNQSGPELMKAGTSVKISCKASGYSFTDYHVNWVKQRPGQGLEWIGWIFPGSGRTFYTDKFKGKATLTVDLSFTTAYIMLNSLTSEDSAVYFCATDYGTSGYGLVYWGQGTSVTVSS
VL: DIQMTQSSSYLSVSLGGRVTISCKASDRINNWLAWYQQKPGNAPRLLISGATSLETGVPSRFSGSGSGKDYTLSITSLQTEDVAVYYCQQYWNIPFTFGSGTKLEIKR
- binding result [5]: no binding (tested: starting at 40 µg/ml)
- binding result [6]: no binding (tested: LOG Con. about 4.6 (about 40000 ng/ml))

- EC50 [8]: 1.25 nM
- EC50 [9]: 1.75 nM
- binding result [10]: no binding
- EC50 [11]: 0.0147 nM
B2: mouse anti-PD-L1 monoclonal antibody 3C2 (antibody, mouse IgG1, V domains shown)
VH: B1 VH
VL: DIQMTQSSSYLSVSLGGRVTISCKASDRINNWLAWYQQKPGNAPRLLISGATSLETGVPSRFSGSGSGKDYTLSITSLQTEDVAVYYCQQYWNIPFTFGSGTKLEIK
notes: Purified from hybridoma; also called Mouse 3C2

- IC50 (read off the curve) [1]: ~0.03 µg/mL
- EC50 [2]: 2.05 nM
- EC50 [3]: 0.348 nM
- EC50 (read off the curve) [4]: ~0.04 µg/mL
- EC50 (read off the curve) [7]: ~0.05 µg/mL
B3: chimeric 56E5 antibody (antibody, human IgG1, kappa, N297A, V domains shown)
VH: EVQLQESGPGLAKPSQTLSLTCSVTGYSITSDYWNWIRKFPGNKLEYMGYISYTGSTYYNPSLKSRISITRDTSKNQYYLQLNSVTTEDTATYYCARYRDWDVRAMDYWGQGTSVTVSS
VL: DIVMTQSPSSLTVTAGEKVTMNCKSSQSLLISGNQKNFLTWYQQKPGQPPKLLIYWASTRESGVPDRFTGSGSGTDFTLTISSVQAEDLAVYYCQNDFGFPFTFGSGTKLEIKR
- binding result [5]: no binding (tested: starting at 40 µg/ml)
- binding result [6]: no binding (tested: LOG Con. about 4.6 (about 40000 ng/ml))

- EC50 [8]: 0.499 nM
- EC50 [9]: 0.572 nM
- binding result [10]: no binding
- EC50 [11]: 0.01 nM
B4: mouse anti-PD-L1 monoclonal antibody 56E5 (antibody, mouse IgG1, V domains shown)
VH: B3 VH
VL: DIVMTQSPSSLTVTAGEKVTMNCKSSQSLLISGNQKNFLTWYQQKPGQPPKLLIYWASTRESGVPDRFTGSGSGTDFTLTISSVQAEDLAVYYCQNDFGFPFTFGSGTKLEIK
notes: Purified from hybridoma; also called Mouse 56E5
